These results are taken from US6074851A, “Catalytic macro molecules having cdc25B like activity” (Pharmacia & UpJohn Company, priority 1997, dated 2000).

For series [1], the target named is GST-cdc25B (residues 355-566) fusion protein (Homo sapiens, UniProt P30305). The conditions noted are these: PNPP as substrate, 37° C.; cited from earlier work.
Substrate in series [2]: O=[N+]([O-])c1ccc(OP(=O)(O)O)cc1
The series can be described thus: purified protein, by the assay type. The following applies: other: PNPP as substrate, 25° C., pH 8.0.

For the molecule `O=[N+]([O-])c1ccc(OP(=O)(O)O)cc1` [PNPP, p-nitrophenyl phosphate], the Michaelis constant (Km) in series [1] is 16.6 mM.

B1: human cdc25B (364-529) VHR-like catalytic domain, GST-free, GIQ-cdc25B (364-529), SEQ ID NO: 24 (Homo sapiens) (protein)
chain: HDEIENLLDSDHRELIGDYSKAFLLQTVDGKHQDLKYISPETMVALLTGKFSNIVDKFVIVDCRYPYEYEGGHIKTAVNLPLERDAESFLLKSPIAPCSLDKRVILIFHCEFSSERGPRMCRFIRERDRAVNDYPSLYYPEMYILKGGYKEFFPQHPNFCEPQDYR
For B1, in series [2], the Km turned out to be 28 mM and the Vmax stood at 250 nmol/min/mg.

B2: human cdc25B (356-556) minimal catalytic domain, Val356-Arg556, GST-free, Form II, SEQ ID NO: 9 (Homo sapiens) (protein)
chain: VLRSKSLCHDEIENLLDSDHRELIGDYSKAFLLQTVDGKHQDLKYISPETMVALLTGKFSNIVDKFVIVDCRYPYEYEGGHIKTAVNLPLERDAESFLLKSPIAPCSLDKRVILIFHCEFSSERGPRMCRFIRERDRAVNDYPSLYYPEMYILKGGYKEFFPQHPNFCEPQDYRPMNHEAFKDELKTFRLKTRSWAGERSR
Regarding B2, the Km in series [2] is 2.0 mM.

B3: human cdc25B Mutein3, cdc25B (356-566) with Arg556Lys/Arg557Lys, SEQ ID NO: 23 (Homo sapiens; R570K/R571K) (protein)
chain: VLRSKSLCHDEIENLLDSDHRELIGDYSKAFLLQTVDGKHQDLKYISPETMVALLTGKFSNIVDKFVIVDCRYPYEYEGGHIKTAVNLPLERDAESFLLKSPIAPCSLDKRVILIFHCEFSSERGPRMCRFIRERDRAVNDYPSLYYPEMYILKGGYKEFFPQHPNFCEPQDYRPMNHEAFKDELKTFRLKTRSWAGERSKKELCSRLQDQ
Regarding B3, in series [2], the Km was found to be 2.0 mM.

B4: near full length GST-cdc25B (31-566) fusion protein (Homo sapiens) (protein)
chain: GLLLGSHGLLGSPVRAAASSPVTTLTQTMHDLAGLGSRSRLTHLSLSRRASESSLSSESSESSDAGLCMDSPSPMDPHMAEQTFEQAIQAASRIIRNEQFAIRRFQSMPVRLLGHSPVLRNITNSQAPDGRRKSEAGSGAASSSGEDKENDGFVFKMPWKPTHPSSTHALAEWASRREAFAQRPSSAPDLMCLSPDRKMEVEELSPLALGRFSLTPAEGDTEEDDGFVDILESDLKDDDAVPPGMESLISAPLVKTLEKEEEKDLVMYSKCQRLFRSPSMPCSVIRPILKRLERPQDRDTPVQNKRRRSVTPPEEQQEAEEPKARVLRSKSLCHDEIENLLDSDHRELIGDYSKAFLLQTVDGKHQDLKYISPETMVALLTGKFSNIVDKFVIVDCRYPYEYEGGHIKTAVNLPLERDAESFLLKSPIAPCSLDKRVILIFHCEFSSERGPRMCRFIRERDRAVNDYPSLYYPEMYILKGGYKEFFPQHPNFCEPQDYRPMNHEAFKDELKTFRLKTRSWAGERSRRELCSRLQDQ
B4: in series [2], the Km stood at 12.0 mM.
